Laboratory results from patent publication US10782287B2, “Enzyme coupled assay for quantification of protein and peptide binding by SAMDI mass spectrometry” (NORTHWESTERN UNIVERSITY, priority 2015, dated 2020).
Ends that are not written are not given here.

Target: T1, Cbx1 fusion protein (Cbx1 chromodomain-KDAC8) (Homo sapiens, UniProt P83916)
T1 construct: constructing E. coli-based vectors containing chromodomains and KDAC8 separated by a short linker; made in house; host or cells: E. coli
Assay: Enzyme-coupled SAMDI mass spectrometry assay: deacetylation of an immobilized KDAC8 substrate reports chromodomain binding to a co-immobilized ligand
Assay type: biochemical
Conditions: monolayer presenting substrate GMK^AcFGC and the ligand; when the chromodomain binds its ligand on the monolayer
Source text: In this example, two peptides—a methylated peptide that binds the chromodomain and an acetylated peptide that is a substrate for the deacetylase—are immobilized to a monolayer presenting maleimide groups against a background of tri(ethylene glycol) groups. The density of the maleimide group is controlled precisely (Houseman et al., Langmuir 19: 1522-1531 (2003)) and the relative densities of the two peptides are controlled either by immobilizing them as a mixture at defined concentrations or by immobilizing the first for a time that gives incomplete immobilization followed by addition of the second peptide. Fusion proteins are prepared by first constructing E. coli-based vectors containing chromodomains and KDAC8 separated by a short linker. The vector is designed to contain a restriction site allowing for the insertion of any chromodomain of interest containing the complementary restriction sites. In this way, the same plasmid containing KDAC8 may be used to rapidly create several chromodomain fusions. Monolayers are treated with the chromodomain-KDAC8 fusion protein for different times, the reactions are stopped by rinsing and the spots are analyzed by SAMDI mass spectrometry to identify an initial velocity for the reaction, υo, which is the measurable parameter that is used to assess the protein-ligand interaction. […]

T1 sequence (P83916 21-79 limits assumed): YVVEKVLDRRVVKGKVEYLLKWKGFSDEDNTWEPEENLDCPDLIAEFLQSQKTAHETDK

QTARK^MeSTGC: methylated H3K9-based peptide ligand for the Cbx1 chromodomain, immobilized on the monolayer via cysteine (QTARK(Me)STGC; also: immobilized on the monolayer via cysteine)
rate acceleration for the deacetylation reaction: approximately 20 fold
